Data published in article PMC8059821.

Target: hACE2-NN-Fc 5mut (human) (UniProt Q9BYF1)
Experiment: SPR

soluble monomeric SARS2-RBD (from UniProt P0DTC2) (domain or fragment)
Kd: 5.45 nM
